According to US11938198B2, “Treatment of heart disease by disruption of the anchoring of PP2A” (University of Miami, priority 2019, dated 2024):
Substitutions are numbered along the chain they refer to. Names may count otherwise.

Experiments:
PDE4D3 Ser-54 = PDE4D3 Ser-54 phosphorylation in mAKAP immunoprecipitates from transfected HEK293 cells (phospho-specific immunoblot); format: cell-based
[1] = system: adult rat ventricular myocytes (ARVM); experiment: ARVM morphologic hypertrophy (cell width and length by immunocytochemistry); format: cell-based; conditions: for PE-induced ARVM hypertrophy / basal ARVM morphology: adenoviral expression; for PE-induced ARVM hypertrophy: 20 μM PE 24 hours; for basal ARVM morphology: no drug
Description: Adult rat ventricular myocyte isolation and culture: 2-3 month old rats were anesthetized using Ketamine (80-100 mg/kg) and Xylazine (5-10 mg/kg) IP following 1000 U heparinization for cardiac excision. The heart was transferred immediately into chilled perfusion buffer (NaCl 120 mM, KCl 5.4 mM, Na2HPO4·7H2O 1.2 mM, NaHCO320.0 mM, MgCl2·6H2O 1.6 mM, Taurine 5 mM, Glucose 5.6 mM, 2,3-Butanedione monoxime 10 mM) pre-equilibrated with 95% O2 and 5% CO2. After removal of extraneous tissue, the heart was attached via the aorta to a Harvard Langendorff apparatus cannula. Ca^2+-free perfusion was used to flush out remaining blood with a constant rate of 8-10 mL/min at 37° C. The heart was then digested through circulatory perfusion with 50 mL perfusion buffer containing 125 mg type II collagenase (Worthington, 245 U/mg), 0.1 mg protease (Sigma type XIV) and 0.1% BSA. After perfusion, the atria were removed and the ventricular myocytes dissociated by slicing and repetitive pipetting. The debris was filtered by a 200 μm nylon mesh, and the myocytes collected by one minute centrifugation at 50 g. Ca^2+ concentration in the buffer was gradually recovered to 1.8 mM and the myocytes were resuspended in ACCT medium (M199 Medium (Invitrogen 11150-059), Creatine 5 mM, L-carnitine 2 mM, Taurine 5 mM, HEPES 25 mM, 2,3-Butanedione monoxime 10 mM, BSA 0.2% and 1×Insulin-Transferrin-Selenium Supplement) and plated on 10 μg/ml laminin pre-coated dishes. Cells were washed with ACCT medium 1.5 hours after plating and subjected to adenoviral infection or siRNA transfection, in which 100-200 Multiplicity of Infection (MOI) of adenovirus and 100 nmol/L siRNA mixed with Dharmafect1 (Dharmacon) were used, respectively. Adrenergic agonists were added the next day, with biochemical assay and morphological measurement performed after 24 hours of stimulation.
Immunocytochemistry: Myocytes on coverslips were fixed in 3.7% formaldehyde in PBS for 1 hour, permeabilized with 0.3% Triton X-100, and blocked in PBS containing 0.2% BSA and 1% horse serum. The slides were then sequentially incubated for 1 hour with primary and Alexa fluorescent dye-conjugated specific-secondary antibodies (Invitrogen, 1:1000) diluted in blocking buffer. The slips were washed three times with blocking buffer. 1 μg/mL Hoechst 33258 was included in the last wash stop to label nuclei. Slides were sealed in SlowFade Gold antifade buffer (Invitrogen, S36938) for fluorescent microscopy. Wide-field images were acquired using a Leica DM4000 Microscope.

PP2A-A subunit = biological target: T1, PP2A-A subunit (Homo sapiens, UniProt P30153); experiment: GST-PP2A-A pull-down of GFP-tagged mAKAP fragments expressed in HEK293 cells; format: binding; conditions: GFP-tagged fragments in HEK293 cell extracts
T1 construct: made in house; host or cells: bacteria
T1 sequence (P30153 whole entry, the tested form may be a part): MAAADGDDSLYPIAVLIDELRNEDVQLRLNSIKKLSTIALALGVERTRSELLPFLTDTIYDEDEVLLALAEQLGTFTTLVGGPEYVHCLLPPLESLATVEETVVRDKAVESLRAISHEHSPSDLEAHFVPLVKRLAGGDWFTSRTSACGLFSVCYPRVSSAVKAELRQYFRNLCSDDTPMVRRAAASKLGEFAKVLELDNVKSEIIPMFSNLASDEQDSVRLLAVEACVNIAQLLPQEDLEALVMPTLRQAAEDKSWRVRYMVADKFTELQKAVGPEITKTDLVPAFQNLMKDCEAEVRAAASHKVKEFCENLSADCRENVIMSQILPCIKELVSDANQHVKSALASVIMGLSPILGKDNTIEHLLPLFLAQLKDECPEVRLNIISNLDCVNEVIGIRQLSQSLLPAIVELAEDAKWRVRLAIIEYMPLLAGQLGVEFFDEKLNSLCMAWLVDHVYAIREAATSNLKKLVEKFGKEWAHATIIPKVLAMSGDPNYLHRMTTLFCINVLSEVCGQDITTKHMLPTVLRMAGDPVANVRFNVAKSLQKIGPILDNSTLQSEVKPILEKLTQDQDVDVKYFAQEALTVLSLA
Description: GST-pulldowns—Glutathione resin adsorbed with PP2A-A subunit GST fusion protein or GST control protein were incubated with HEK293 cell extracts. After an overnight incubation, the beads were washed three times. Bound proteins were analyzed by immunoblotting.
mAKAP residues 2083-2319 contain the PP2A binding domain. In order to map the PP2A binding site on mAKAP, a bacterially-expressed PP2A-A subunit GST-fusion protein was used to pull down GFP-tagged fragments of mAKAP expressed in HEK293 cells (FIGS. 10A & B). GST-PP2A-A consistently pulled down only fragments of mAKAP containing a domain C-terminal to residue 2085.

PP2A = biological target: T2, PP2A (Homo sapiens, UniProt P30153+P67775); experiment: myc-tag immunoprecipitation of mAKAP fragments from HEK293 cells with phosphatase assay; format: binding; conditions: myc-tagged fragments expressed in HEK293 cells
T2 construct: endogenous in cells; host or cells: HEK293
T2 sequence (P67775 whole entry, the tested form may be a part): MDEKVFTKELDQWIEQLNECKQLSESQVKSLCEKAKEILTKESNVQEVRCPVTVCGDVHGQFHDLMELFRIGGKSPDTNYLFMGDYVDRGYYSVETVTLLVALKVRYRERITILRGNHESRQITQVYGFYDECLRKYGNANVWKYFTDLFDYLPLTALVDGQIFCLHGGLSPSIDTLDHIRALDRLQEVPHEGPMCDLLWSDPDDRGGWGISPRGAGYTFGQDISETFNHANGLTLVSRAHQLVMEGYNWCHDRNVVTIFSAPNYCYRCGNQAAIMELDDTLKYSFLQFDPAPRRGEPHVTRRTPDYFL
T2 sequence (P30153 whole entry, the tested form may be a part): as the sequence (P30153 whole entry, the tested form may be a part) above
Description: Immunoprecipitation—HEK293 cells were used in this project as a heterologous system lacking mAKAP in which the various wildtype and mutant proteins could be easily expressed. Cells cultured on 60 mm plates were transfected at 50%-70% confluency by the calcium phosphate method, using 6 μg of each DNA construct per plate. Cells were harvested 24 hours after transfection in 0.5 ml HSE buffer (HEPES, pH 7.4, 150 mM NaCl, 5 mM EDTA, 1% Triton X-100 and protease inhibitors). Supernatants were incubated with 3 μg antibody and 15 μl prewashed protein A- or G-agarose beads. Following overnight incubation at 4° C., the immunoprecipitates were washed three times with the same buffer. Bound proteins were analyzed by immunoblotting.
To measure phosphatase activity, immunoprecipitated protein complexes were washed twice in HSE buffer and once in PP2A reaction buffer. The immunoprecipitates were incubated for 30 minutes at 30° C. in 20 μl PP2A assay buffer containing 100,000 cpm [^32P]histone in the presence and absence of inhibitors. The PP2A inhibitor (Calbiochem) was used at a concentration of 30 nM. Purified I-1 was phosphorylated by PKA before using as a specific PP1 inhibitor. Reactions were terminated by the addition of 100 μl 20% TCA followed by 10 min centrifugation. TCA supernatants containing released ^32PO4 were measured by scintillation counting. […]

## C=C[C@@]1(C)CC(=O)[C@]2(O)[C@@]3(C)[C@@H](O)CCC(C)(C)[C@@H]3[C@H](O)[C@H](OC(C)=O)[C@@]2(C)O1 [Fsk, forskolin]
PDE4D3 Ser-54; 5 μM Fsk 10 min, in the presence of OA
  further enhancement of PDE4D3 Ser-54 phosphorylation by forskolin: 1.8 fold
PDE4D3 Ser-54; 5 μM Fsk, absence of phosphatase inhibition
  PDE4D3 Ser-54 phosphorylation, forskolin alone: no significant effect

## CC(C)NCC(O)c1ccc(O)c(O)c1 (stereo not drawn) [Iso, isoproterenol, reference compound]
[1]; 10 μM Iso, 24 hours
  ARVM length and width under chronic β-adrenergic stimulation: increased both ARVM length and width

## CNC[C@H](O)c1cccc(O)c1 [PE, phenylephrine, reference compound]
[1]; 20 μM PE, 24 hours
  decrease in ARVM length/width ratio: 8-14%
  increase in ARVM width: 8-10%

B1: SRF S103D: SRF phosphomimetic mutant expressed by adenovirus (protein, UniProt P11831 1-508, looked up, variant S103D)
Serum response factor: MLPTQAGAAAALGRGSALGGSLNRTPTGRPGGGGGTRGANGGRVPGNGAGLGPGRLEREAAAAAATTPAPTAGALYSGSEGDSESGEEEELGAERRGLKRSLDEMEIGMVVGGPEASAAATGGYGPVSGAVSGAKPGKKTRGRVKIKMEFIDNKLRRYTTFSKRKTGIMKKAYELSTLTGTQVLLLVASETGHVYTFATRKLQPMITSETGKALIQTCLNSPDSPPRSDPTTDQRMSATGFEETDLTYQVSESDSSGETKDTLKPAFTVTNLPGTTSTIQTAPSTSTTMQVSSGPSFPITNYLAPVSASVSPSAVSSANGTVLKSTGSGPVSSGGLMQLPTSFTLMPGGAVAQQVPVQAIQVHQAPQQASPSRDSSTDLTQTSSSGTVTLPATIMTSSVPTTVGGHMMYPSPHAVMYAPTSGLGDGSLTVLNAFSQAPSTMQVSHSQVQEPGGVPQVFLTASSGTVQIPVSAVQLHQMAVIGQQAGSSSNLTELQVVNLDTAHSTKSE
[1]
  PE-induced ARVM hypertrophy: did not enhance nor diminish
  basal ARVM morphology: increased ARVM width

B2: SRF S103A: SRF Ser103-to-alanine mutant expressed by adenovirus (protein, UniProt P11831 1-508, looked up, variant S103A)
Serum response factor: B1 Serum response factor with D103A
[1]
  PE-induced ARVM hypertrophy: inhibited the PE-induced concentric hypertrophy
  basal ARVM morphology: did not affect basal myocyte size

B3: rat mAKAP 1835-2312: GFP-fusion fragment of rat mAKAP (protein)
chain: ANPSDTLDIEALLNGSIRCLSENNGNGKTPPRTHGSGTKGENKKSTYDVSKDPHVADMENGNIESTPEREREKPQGLPEVSENLASNVKTISESELSEYEAVMDGSEDSSVARKEFCPPNDRHPPQMGPKLQHPENQSGDCKPVQNPCPGLLSEAGVGSRQDSNGLKSLPNDAPSGARKPAGCCLLEQNETEESASISSNASCCNCKPDVFHQKDDEDCSVHDFVKEIIDMASTALKSKSQPESEVAAPTSLTQIKEKVLEHSHRPIHLRKGDFYSYLSLSSHDSDCGEVTNYIDEKSSTPLPPDAVDSGLDDKEDMDCFFEACVEDEPVNEEAGLPGALPNESAIEDGAEQKSEQKTASSPVLSDKTDLVPLSGLSPQKGADDAKEGDDVSHTSQGCAESTEPTTPSGKANAEGRSRMQGVSATPEENAASAKPKIQAFSLNAKQPKGKVAMRYPSPQTLTCKEKLVNFHEDRHSNM
modifications: left off: large carriers
PP2A-A subunit
  binding to GST-PP2A-A (pull-down): bound GST-PP2A-A

B4: human 2085-2319: GFP-fusion fragment of human mAKAP residues 2085-2319 (protein)
chain: TSLTQIKEKVLEHSHRPIQLRKGDFYSYLSLSSHDSDCGEVTNYIEEKSSTPLPLDTTDSGLDDKEDIECFFEACVEGDSDGEEPCFSSAPPNESAVPSEAAMPLQATACSSEFSDSSLSADDADTVALSSPSSQERAEVGKEVNGLPQTSSGCAENLEFTPSKLDSEKESSGKPGESGMPEEHNAASAKSKVQDLSLKANQPTDKAALHPSPKTLTCEENLLNLHEKRHRNMHR
modifications: left off: large carriers
PP2A-A subunit
  binding to GST-PP2A-A (pull-down): bound GST-PP2A-A

B5: mAKAP 1286-2312: myc-tagged mAKAP construct containing binding sites for PDE4D3, PKA and PP2A (protein)
chain: VYSLHNVELHEDSHTPFLKSSPKFTGTTQPTVLTKSLSKDSSFSSTKSLPDLLGGSGLVRPYSCHSGDLSQNSGSESGIVSEGDNEMPTNSDMSLFSMVDGSPSNPETEHPDPQMGDAANVLEQKFKDNGESIKLSSVSRASVSPVGCVNGKAGDLNSVTKHTADCLGEELQGKHDVFTFYDYSYLQGSKLKLPMIMKQPQSEKAHVEDPLLGGFYFDKKSCKAKHQASESQPDAPPHERILASAPHEMGRSAYKSSDIEKTFTGIQSARQLSLLSRSSSVESLSPGGDLFGLGIFKNGSDSLQRSTSLESWLTSYKSNEDLFSCHSSGDISVSSGSVGELSKRTLDLLNRLENIQSPSEQKIKRSVSDMTLQSSSQKMPFAGQMSLDVASSINEDSPASLTELSSSDELSLCSEDIVLHKNKIPESNASFRKRLNRSVADESDVNVSMIVNVSCTSACTDDEDDSDLLSSSTLTLTEEELCLKDEDDDSSIATDDEIYEESNLMSGLDYIKNELQTWIRPKLSLTREKKRSGVTDEIKVNKDGGGNEKANPSDTLDIEALLNGSIRCLSENNGNGKTPPRTHGSGTKGENKKSTYDVSKDPHVADMENGNIESTPEREREKPQGLPEVSENLASNVKTISESELSEYEAVMDGSEDSSVARKEFCPPNDRHPPQMGPKLQHPENQSGDCKPVQNPCPGLLSEAGVGSRQDSNGLKSLPNDAPSGARKPAGCCLLEQNETEESASISSNASCCNCKPDVFHQKDDEDCSVHDFVKEIIDMASTALKSKSQPESEVAAPTSLTQIKEKVLEHSHRPIHLRKGDFYSYLSLSSHDSDCGEVTNYIDEKSSTPLPPDAVDSGLDDKEDMDCFFEACVEDEPVNEEAGLPGALPNESAIEDGAEQKSEQKTASSPVLSDKTDLVPLSGLSPQKGADDAKEGDDVSHTSQGCAESTEPTTPSGKANAEGRSRMQGVSATPEENAASAKPKIQAFSLNAKQPKGKVAMRYPSPQTLTCKEKLVNFHEDRHSNM
modifications: left off: small tags and cut ends
PP2A
  co-immunoprecipitation with OA-sensitive phosphatase activity: co-immunoprecipitated with OA-sensitive phosphatase activity
